Measured values taken from paper doi:10.1101/2021.04.23.440992.

What follows are substances tested against FUS-DDIT3 (Type II fusion), recombinant (assay: partitioning of a labelled client into condensates).

Row | Substance | partition coefficient
1 | BRG1^PLD, recombinant N-terminal prion-like domain of BRG1 (from UniProt P51532 1-340) (domain or fragment) | 40
2 | SS18^PLD, recombinant prion-like domain of SS18 (domain or fragment) | 6

Further lines, results first:

Row | partition coefficient | Substance
3 | 3.8 | ARID1B^PLD, recombinant prion-like domain of ARID1B (domain or fragment)
4 | 15 | ARID1A^PLD, recombinant prion-like domain of ARID1A (domain or fragment)
5 | 27 | BRG1, recombinant, RED-tris-NTA-labeled (from UniProt P51532 1-1647) (natural protein)
